Substrate in this series: CCn1c(=NN=c2sc3cc(S(=O)(=O)O)ccc3n2CC)sc2cc(S(=O)(=O)O)ccc21
The series can be described thus: purified protein. In kind it is biochemical, Thermothielavioides terrestris. Conditions: free enzyme, pH 3.0 glycine-HCl, 65 °C, 5 min, 0.05 to 5 mM ABTS.

B1: TtLacA (Thermothielavioides terrestris NRRL 8126) (protein)
chain: MGLLRGLLESVSETLELFYTATATLTQESTNGLSLLGTLLARVLPLFLTNNPLPDGFPWGSLSDTNTNPYVDYPRTGVVRYYDFTVSRGIIAPDGYQRDVLLVNGAYPGPLIEANWGDTIVVTVHNNISNPEDGTTIHWHGFLQRETPWADGAPGISQCPIPPGSSYTYEFVASLFGTSWYHAHYSAQYAGGVVGPIVVYGPTHAKYDVDLGPIMLSDWYHREYFDIVKELLSPNASPRVLSDNNLIDGKMNFDCSTVAPGDNTPCTDRAGISKFKFQTGKTHRLRLINSGADGVQRFSIDQHTLTVIAEDFVPVKPYNTTVVTLGVGQRTDVLVTANAGPPDSLFWMRSNLTTCSPARQPNALAAVYYDKADTSATPSSRPWDVPDPGTCANDPLDISEPLYPIPLPKPAITQTMDIELFKNASNVTLWKFNGVSMRTDYNSPVILLANQGNFSYPPEWNVVNYQQTTAIRIIINNKGPGPHPMHLHGHNFYILHEGPGEWDGTIVRPSNPMRRDVELVRGNGHLVIQFDGAPGVWAFHCHIAWHSSGGFLASLLVQPHKVQQMHLPGDVEQNCRAWDLWTKHNVVDQIDSGT
notes: native secreted enzyme purified from culture supernatant, free (not immobilised); 70 kDa by SDS-PAGE; MS/MS peptides QPNALAAVYYDK, YDVDLGPIMLSDWYHR, VLSDNNLIDGK, LINSGADGVQR
The term Km denotes the concentration of substrate that gives half-maximal velocity. The kcat is the maximal rate divided by the concentration of active sites. In the case of B1, the Km was 260 µM and the kcat came to 13.73 s⁻¹.

(Values after PMC10057929, “Improvement of Laccase Production by Thielavia terrestris Co3Bag1. Enhancing the Bio-Catalytic Performance of the Native Thermophilic TtLacA via Immobilization in Copper Alginate Gel Beads” (Journal of Fungi, 2023).)
